Earlier results, collected in publication PMC12687026.

How the values were obtained:
Glu212 = experiment: kinetics; details: green (unconverted) LEA
His194 = experiment: kinetics; details: green (unconverted) LEA

## LEA (least evolved ancestor), engineered Kaede-like green-to-red photoconvertible fluorescent protein (synthetic construct (reconstructed ancestral coral fluorescent protein))
Glu212
  pKa: ∼4.5
His194
  pKa: ∼7.5
